Series [1] deals with the molecule itself. The experiment in a line: cross-linking; XL-MS: purified SEC fractions crosslinked with 2 mM BS3 at 4 °C for 2 h; trypsin digest, LC-MS/MS, pLink2; intra-subunit XLs of the monomer fraction subtracted from those of the dimer.
Series [2] deals with the molecule itself. Put plainly: SEC; analytical size exclusion on Superdex 200 Increase 10/300 GL in 20 mM HEPES, pH 7.4, 100 mM NaCl, 4% glycerol; all truncations N-terminally fused to MBP.
Series [3] deals with the molecule itself. The experiment in a line: two-hybrid; CheckMate mammalian two-hybrid (Promega) in HeLa Pml-/- cells; pG5-luc, pBIND-PML and pACT-PML at 1:1:1; dual-luciferase read-out 24 h after transfection; normalised to pACT vector:pBIND-PML = 1.
Series [4] concerns the molecule itself. Put plainly: cryo-EM structure; MBP-PML_(46–256) dimer fraction from SEC, ~3 mg/mL; non-tilt and 40°-tilt data; C2 symmetry imposed; 5.3 Å overall.

Consider 14 proteins from article PMC11589706, “Cryo-EM structure of PML RBCC dimer reveals CC-mediated octopus-like nuclear body assembly mechanism” (Cell Discovery, 2024).

One may read the stoichiometry N as a count of units in the complex or per binding partner.

Residue numbers refer to the chain shown, from its start. Names may count otherwise.

B1: PML_(46–362) (domain or fragment, human, UniProt P29590 46-362, looked up)
chain: PASEEEFQFLRCQQCQAEAKCPKLLPCLHTLCSGCLEASGMQCPICQAPWPLGADTPALDNVFFESLQRRLSVYRQIVDAQAVCTRCKESADFWCFECEQLLCAKCFEAHQWFLKHEARPLAELRNQSVREFLDGTRKTNNIFCSNPNHRTPTLTSIYCRGCSKPLCCSCALLDSSHSELKCDISAEIQQRQEELDAMTQALQEQDSAFGAVHAQMHAAVGQLGRARAETEELIRERVRQVVAHVRAQERELLEAVDARYQRDYEEMASRLGRLDAVLQRIRTGSALVQRMKCYASDQEVLDMHGFLRQALCRLRQE
notes: PML (TRIM19), human, residues 46-362, the complete RBCC domain; also called truncated protein PML_(46–362); complete RBCC domain; source: E. coli BL21(DE3), purified; not shown: MBP, N-terminal, cleaved
With B1, the binding result in series [1] is on record as “binds”.

B2: MBP-PML_(46–362) (domain or fragment, human, UniProt P29590 46-362, looked up)
chain: B1 chain
notes: PML (TRIM19), human, residues 46-362; source: E. coli BL21(DE3), purified; not shown: MBP, N-terminal, kept
With B2, the binding result in series [2] was “binds”.

B3: full-length PML L240R, mammalian two-hybrid fusions (natural protein, human, UniProt P29590-5 1-633, looked up)
chain: MEPAPARSPRPQQDPARPQEPTMPPPETPSEGRQPSPSPSPTERAPASEEEFQFLRCQQCQAEAKCPKLLPCLHTLCSGCLEASGMQCPICQAPWPLGADTPALDNVFFESLQRRLSVYRQIVDAQAVCTRCKESADFWCFECEQLLCAKCFEAHQWFLKHEARPLAELRNQSVREFLDGTRKTNNIFCSNPNHRTPTLTSIYCRGCSKPLCCSCALLDSSHSELKCDISAEIQQRQEERDAMTQALQEQDSAFGAVHAQMHAAVGQLGRARAETEELIRERVRQVVAHVRAQERELLEAVDARYQRDYEEMASRLGRLDAVLQRIRTGSALVQRMKCYASDQEVLDMHGFLRQALCRLRQEEPQSLQAAVRTDGFDEFKVRLQDLSSCITQGKDAAVSKKASPEAASTPRDPIDVDLPEEAERVKAQVQALGLAEAQPMAVVQSVPGAHPVPVYAFSIKGPSYGEDVSNTTTAQKRKCSQTQCPRKVIKMESEEGKEARLARSSPEQPRPSTSKAVSPPHLDGPPSPRSPVIGSEVFLPNSNHVASGAGEAEERVVVISSSEDSDAENSSSRELDDSSSESSDLQLEGPSTLRVLDENLADPQAEDRPLVFFDLKIDNESGFSWGYPHPFLI
notes: PML (TRIM19) isoform IV, full length, L240R; source: HeLa Pml-/- cells, transfected, mammalian two-hybrid fusion
As for B3, in series [3], the “percent reduction of PML self-interaction (relative luciferase activity) compared to control” value came out at 83.9%.

B4: full-length PML V123R/L178R, mammalian two-hybrid fusions (natural protein, human, UniProt P29590-5 1-633, looked up)
chain: B3 chain with V123R, L178R, R240L
notes: PML (TRIM19) isoform IV, full length, V123R and L178R; source: HeLa Pml-/- cells, transfected, mammalian two-hybrid fusion
Turning to B4, the “percent reduction of PML self-interaction (relative luciferase activity) compared to control” value in series [3] amounted to 33.1%.

B5: full-length PML L247R, mammalian two-hybrid fusions (natural protein, human, UniProt P29590-5 1-633, looked up)
chain: B3 chain with R240L, L247R
notes: PML (TRIM19) isoform IV, full length, L247R; source: HeLa Pml-/- cells, transfected, mammalian two-hybrid fusion
As for B5, the “percent reduction of PML self-interaction (relative luciferase activity) compared to control” value in series [3] was 75.8%.

B6: full-length PML F177R, mammalian two-hybrid fusions (natural protein, human, UniProt P29590-5 1-633, looked up)
chain: B3 chain with F177R, R240L
notes: PML (TRIM19) isoform IV, full length, F177R; source: HeLa Pml-/- cells, transfected, mammalian two-hybrid fusion
In the case of B6, the “percent reduction of PML self-interaction (relative luciferase activity) compared to control” value in series [3] turned out to be 45.1%.

B7: full-length PML V123R/F177R, mammalian two-hybrid fusions (natural protein, human, UniProt P29590-5 1-633, looked up)
chain: B3 chain with V123R, F177R, R240L
notes: PML (TRIM19) isoform IV, full length, V123R and F177R; source: HeLa Pml-/- cells, transfected, mammalian two-hybrid fusion
With B7, in series [3], the “percent reduction of PML self-interaction (relative luciferase activity) compared to control” value is 39.1%.

B8: full-length PML V123R, mammalian two-hybrid fusions (natural protein, human, UniProt P29590-5 1-633, looked up)
chain: B3 chain with V123R, R240L
notes: PML (TRIM19) isoform IV, full length, V123R; source: HeLa Pml-/- cells, transfected, mammalian two-hybrid fusion
On to B8, for which, in series [3], the “percent reduction of PML self-interaction (relative luciferase activity) compared to control” value was determined as 18.5%.

B9: full-length PML I279R, mammalian two-hybrid fusions (natural protein, human, UniProt P29590-5 1-633, looked up)
chain: B3 chain with R240L, I279R
notes: PML (TRIM19) isoform IV, full length, I279R; source: HeLa Pml-/- cells, transfected, mammalian two-hybrid fusion
As for B9, the “percent reduction of PML self-interaction (relative luciferase activity) compared to control” value in series [3] is 73.7%.

B10: full-length PML L178R, mammalian two-hybrid fusions (natural protein, human, UniProt P29590-5 1-633, looked up)
chain: B3 chain with L178R, R240L
notes: PML (TRIM19) isoform IV, full length, L178R; source: HeLa Pml-/- cells, transfected, mammalian two-hybrid fusion
Turning to B10, the “percent reduction of PML self-interaction (relative luciferase activity) compared to control” value in series [3] was 44.9%.

B11: MBP-PML_(46–287) (domain or fragment, human, UniProt P29590 46-287, looked up)
chain: PASEEEFQFLRCQQCQAEAKCPKLLPCLHTLCSGCLEASGMQCPICQAPWPLGADTPALDNVFFESLQRRLSVYRQIVDAQAVCTRCKESADFWCFECEQLLCAKCFEAHQWFLKHEARPLAELRNQSVREFLDGTRKTNNIFCSNPNHRTPTLTSIYCRGCSKPLCCSCALLDSSHSELKCDISAEIQQRQEELDAMTQALQEQDSAFGAVHAQMHAAVGQLGRARAETEELIRERVRQVV
notes: PML (TRIM19), human, residues 46-287; source: E. coli BL21(DE3), purified; not shown: MBP, N-terminal, kept
With B11, the binding result in series [2] is reported as “binds”.

B12: MBP-PML_(46–323) (domain or fragment, human, UniProt P29590 46-323, looked up)
chain: PASEEEFQFLRCQQCQAEAKCPKLLPCLHTLCSGCLEASGMQCPICQAPWPLGADTPALDNVFFESLQRRLSVYRQIVDAQAVCTRCKESADFWCFECEQLLCAKCFEAHQWFLKHEARPLAELRNQSVREFLDGTRKTNNIFCSNPNHRTPTLTSIYCRGCSKPLCCSCALLDSSHSELKCDISAEIQQRQEELDAMTQALQEQDSAFGAVHAQMHAAVGQLGRARAETEELIRERVRQVVAHVRAQERELLEAVDARYQRDYEEMASRLGRLDAVL
notes: PML (TRIM19), human, residues 46-323; source: E. coli BL21(DE3), purified; not shown: MBP, N-terminal, kept
As to B12, the binding result in series [2] is “binds”.

B13: MBP-PML_(46–391) (domain or fragment, human, UniProt P29590 46-391, looked up)
chain: PASEEEFQFLRCQQCQAEAKCPKLLPCLHTLCSGCLEASGMQCPICQAPWPLGADTPALDNVFFESLQRRLSVYRQIVDAQAVCTRCKESADFWCFECEQLLCAKCFEAHQWFLKHEARPLAELRNQSVREFLDGTRKTNNIFCSNPNHRTPTLTSIYCRGCSKPLCCSCALLDSSHSELKCDISAEIQQRQEELDAMTQALQEQDSAFGAVHAQMHAAVGQLGRARAETEELIRERVRQVVAHVRAQERELLEAVDARYQRDYEEMASRLGRLDAVLQRIRTGSALVQRMKCYASDQEVLDMHGFLRQALCRLRQEEPQSLQAAVRTDGFDEFKVRLQDLSSCIT
notes: source: E. coli BL21(DE3), purified; not shown: MBP, N-terminal, kept
On to B13, for which the binding result in series [2] was “binds”.

B14: MBP-PML_(46–256) (domain or fragment, human, UniProt P29590 46-256, looked up)
chain: PASEEEFQFLRCQQCQAEAKCPKLLPCLHTLCSGCLEASGMQCPICQAPWPLGADTPALDNVFFESLQRRLSVYRQIVDAQAVCTRCKESADFWCFECEQLLCAKCFEAHQWFLKHEARPLAELRNQSVREFLDGTRKTNNIFCSNPNHRTPTLTSIYCRGCSKPLCCSCALLDSSHSELKCDISAEIQQRQEELDAMTQALQEQDSAFGA
notes: Monomer and dimer fractions were separated by SEC; The cryo-EM model covers P46-S221; also called PML RBCC fragment; PML RBCC dimer; source: E. coli BL21(DE3), purified (amylose column, Superdex 200 Increase SEC); not shown: MBP, N-terminal, kept
B14: in series [4], the “stoichiometry N” value came to 2.
